{"source": "patent US20220289854A1", "binders": {"B1": {"name": "455.1C11 anti-mouse CX3CR1 monoclonal antibody (antibody, V domains shown)", "VH": "QVQLVETGGGLVRPGNSLKLSCVTSGFTFSNYRMHWLRQFPGKRLEWIAVIAFKSDKFGANYAESVKGRFAISRDDSKNSVYLEMSRLREEDTATYFCSRDGNGPFDYWGQGTTLTVSS", "VL": "DIVMSQSPSSLTVSVGEKVTMSCKSSQSLLYSGNQKSYLAWYQQKPGQSPRLLIYWASTRESGVPDRFTGSGSGTDFTLTISGVKAEDLAVYYCQRYYGYPRTFGGGTKLEIK"}}, "target": "mouse CX3CR1 (mouse)", "experiment": "flow cytometry titration on Jurkat cells transfected with mCX3CR1; goat anti-mIgG PE", "data": [{"binder": "B1", "values": [{"measurement": "EC50", "result": 0.102, "unit": "µg/mL"}]}]}
